Data as given in patent publication US20200262920A1 (AMPHIVENA THERAPEUTICS, published 2020).
“And” between values parts separate entries of the source, which are not always exact repeats. Equal values may be shown once.

Key:
human CD33 [1] = target: T1, human CD33 (human, UniProt P20138 18-364); test: flow cytometry titration, KG-1 cells
T1 construct: whole, on cells; also called huCD33; CD33 on HL-60, KG-1, KG-1a, U-937 cells
Outline: (§1)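 Cells titrated with CD33/CD3 2×2 T-cell engagers, detected via anti-His then FITC anti-mouse IgG on ice, with PI exclusion of dead cells. Background-subtracted mean fluorescence fit to one-site binding for KD; cross-reactivity ratio from KDs on CHO cells expressing recombinant cynomolgus or human CD33.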

human CD33 [2] = target: T1, human CD33; test: flow cytometry titration, U-937 cells
Outline: as §1

human CD33 [3] = target: T1, human CD33; test: cell-based or functional assay
human CD33 [4] = target: T1, human CD33; test: cell-based or functional assay; remark: listed apart in the source
human CD3 [5] = target: T2, human CD3 (human, UniProt P07766 23-207; P09693 23-182; P04234 22-171; P20963 22-164); test: flow cytometry titration, T cells (human CD3+)
T2 construct: whole, on cells; the description names the epsilon chain only 'in certain instances'; also called hu CD3; CD3 on T cells

human CD33 [6] = target: T1, human CD33; test: flow cytometry, HL-60 cells
human CD33 [7] = target: T1, human CD33; test: flow cytometry titration, HL-60 cells
Outline: as §1

human CD3 [8] = target: T2, human CD3; test: cell-based or functional assay
cynomolgus CD33 = target: T3, cynomolgus CD33 (cynomolgus, UniProt A0A7N9ICR5 17-359); test: ratio of KD by flow cytometry on CHO cells expressing cynomolgus CD33 vs human CD33
T3 construct: whole, on cells; also called cynoCD33; cyno CD33
Procedure: Cells were incubated with 100 μL of serial dilutions of CD33/CD3 2×2 T-cell engagers. After washing three times with FACS buffer the cells were incubated with 0.1 mL of 10 μg/mL mouse monoclonal anti-His antibody in the same buffer for 45 min on ice. After a second washing cycle, the cells were incubated with 0.1 mL of 15 μg/mL FITC-conjugated goat anti-mouse IgG antibodies under the same conditions as before. As a control, cells were incubated with the anti-His IgG followed by the FITC-conjugated goat anti-mouse IgG antibodies without anti-CD33 2×2 T-cell engagers. The cells were then washed again and resuspended in 0.2 mL of FACS buffer containing 2 μg/mL propidium iodide (PI) in order to exclude dead cells. The fluorescence of 1×10⁴ living cells was measured using a Beckman-Coulter FC500 MPL flow cytometer using the MXP software (Beckman-Coulter, Krefeld, Germany) or a Millipore Guava EasyCyte flow cytometer using the Incyte software (Merck Millipore, Schwalbach, Germany). Mean fluorescence intensities of the cell samples were calculated using CXP software (Beckman-Coulter, Krefeld, Germany) or Incyte software (Merck Millipore, Schwalbach, Germany). After subtracting the fluorescence intensity values of the cells stained with the secondary and tertiary reagents alone the values were used for calculation of the KD values with the equation for one-site binding (hyperbola) of the GraphPad Prism (version 6.00 for Windows, GraphPad Software, La Jolla Calif. USA).
CD3 binding affinity and crossreactivity were evaluated in titration and flow cytometric experiments on CD3⁺ Jurkat cells (provided by Dr. Moldenhauer, DKFZ Heidelberg; human acute T-cell leukemia) and the cynomolgus CD3⁺ HSC-F cell line (JCRB, cat.:JCRB 1164). […] The KD ratio of crossreactivity was calculated using the KD values determined on the CHO cell lines expressing either recombinant human or recombinant cynomolgus antigens.

human CD3 [9] = target: T2, human CD3; test: flow cytometry, human T-cells
human CD33 [10] = target: T1, human CD33; test: cell-based or functional assay; remark: listed apart in the source
human CD33 [11] = target: T1, human CD33; test: cell-based or functional assay; remark: listed apart in the source
human CD33 [12] = target: T1, human CD33; test: cell-based or functional assay; remark: listed apart in the source

T1 sequence (P20138 18-364): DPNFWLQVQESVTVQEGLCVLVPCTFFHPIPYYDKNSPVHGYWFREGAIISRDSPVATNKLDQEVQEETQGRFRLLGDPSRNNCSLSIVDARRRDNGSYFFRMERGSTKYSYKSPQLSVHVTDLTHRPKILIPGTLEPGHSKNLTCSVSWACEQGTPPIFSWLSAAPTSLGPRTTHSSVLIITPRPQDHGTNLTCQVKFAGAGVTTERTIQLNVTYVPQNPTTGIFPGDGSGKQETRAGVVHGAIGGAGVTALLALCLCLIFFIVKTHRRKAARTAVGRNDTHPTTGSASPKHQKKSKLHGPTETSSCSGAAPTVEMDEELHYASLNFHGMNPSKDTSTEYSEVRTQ
T2 sequence (P07766 23-207, chain 1 of 4): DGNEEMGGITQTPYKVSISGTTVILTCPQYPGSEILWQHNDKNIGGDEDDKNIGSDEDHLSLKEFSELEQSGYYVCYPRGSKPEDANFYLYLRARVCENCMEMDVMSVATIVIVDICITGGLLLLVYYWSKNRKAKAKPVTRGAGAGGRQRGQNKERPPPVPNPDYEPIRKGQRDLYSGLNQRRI
T2 sequence (P09693 23-182, chain 2 of 4): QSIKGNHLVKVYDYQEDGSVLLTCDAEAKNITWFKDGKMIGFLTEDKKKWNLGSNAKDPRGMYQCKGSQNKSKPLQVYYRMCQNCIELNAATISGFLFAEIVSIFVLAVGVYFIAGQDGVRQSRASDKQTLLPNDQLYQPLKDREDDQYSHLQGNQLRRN
T2 sequence (P04234 22-171, chain 3 of 4): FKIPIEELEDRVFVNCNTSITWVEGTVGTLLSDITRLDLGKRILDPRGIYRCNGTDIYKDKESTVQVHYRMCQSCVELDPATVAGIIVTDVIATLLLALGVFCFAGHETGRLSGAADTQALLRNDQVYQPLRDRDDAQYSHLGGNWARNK
T2 sequence (P20963 22-164, chain 4 of 4): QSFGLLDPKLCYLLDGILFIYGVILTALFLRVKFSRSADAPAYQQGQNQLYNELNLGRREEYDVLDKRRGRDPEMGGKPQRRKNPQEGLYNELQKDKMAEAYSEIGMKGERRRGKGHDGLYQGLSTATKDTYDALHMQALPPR

Binder	Kd (human CD33 [1])	Kd (human CD33 [2])	EC50 on HL-60 (cytotoxicity) (human CD33 [3])	IC50, lysis of KG-1 cells with human T cells (human CD33 [4])	Kd (human CD3 [5])	Kd (human CD33 [6])	Kd (human CD33 [7])	CD25 Induction EC50 (human CD3 [8])	CD69 Induction EC50 (human CD3 [8])	T cell Proliferation in PBMC EC50 (human CD3 [8])	KD ratio cynoCD33/huCD33 (cynomolgus CD33)	Kd (human CD3 [9])	EC50, cytotoxicity on HL-60 (human CD33 [10])	EC50, cytotoxicity on KG-1 (human CD33 [10])	EC50, cytotoxicity on U-937 (human CD33 [10])	EC50, cytotoxicity, mean of HL-60, U-937, KG-1 (human CD33 [10])	EC50 (mean), redirected lysis of BV-173 cells (human CD33 [11])	EC50 (mean), redirected lysis of CHO-CD33 cells (human CD33 [11])	EC50 (mean), redirected lysis of HL-60 cells (human CD33 [11])	EC50 (mean), redirected lysis of K562 cells (human CD33 [11])	further results
CD33/CD3 2×2 T-cell engager 19 (bispecific antibody, Non-covalent homodimer) DIQMTQSPSSLSASVGDRVTITCRSSTGAVTTSNYANWVQQKPGKAPKALIGGTNKRAPGVPSRFSGSLIGDKATLTISSLQPEDFATYYCALWYSNLWVFGQGTKVEIKGGSGGSQVQLVQSGAEVKKPGASVKVSCKASGYTFTSYYMHWVRQAPGQGLEWMGIINPSGGSTSYAQKFQGRVTMTRDTSTSTVYMELSSLRSEDTAVYYCARDVVPAAIDYYGMDVWGQGTTVTVSSGGSGQSVLTQPPSASGTPGQRVTISCSGSSSNIGSNTVNWYQQLPGTAPKLLIYSDNQRPSGVPDRFSGSKSGSSASLAISGLQSDDEADYYCATWDDSLNGAVFGGGTKLTVLGGSGGSEVQLVESGGGLVQPGGSLRLSCAASGFTFSTYAMNWVRQAPGKGLEWVGRIRSKYNNYATYYADSVKDRFTISRDDSKNSLYLQMNSLKTEDTAVYYCARHGNFGNSYVSYFAYWGQGTLVTVSSAAAGSHHHHHH	3600 pM	5400 pM	5.7 pM	~5 pM	6300 pM	2800 pM	2800 pM	9 pM	5 pM	6 pM	37.3	6300 pM	–	–	–	–	–	–	–	–	–
CD33/CD3 2×2 T-cell engager 12 (bispecific antibody, Non-covalent homodimer; also called tandom diabody 12) DIQMTQSPSSLSASVGDRVTITCRSSTGAVTTSNYANWVQQKPGKAPKALIGGTNKRAPGVPSRFSGSLIGDKATLTISSLQPEDFATYYCALWYSNLWVFGQGTKVEIKGGSGGSQVQLVQSGAEVKKPGASVKVSCKASGYTFTSYDINWVRQAPGQGLEWMGWMNPNSGNTGFAQKFQGRVTMTRDTSTSTVYMELSSLRSEDTAVYYCARDRAVTDYYYGMDVWGQGTLVTVSSGGSGQSVLTQPPSASGTPGQRVTISCSGSRSNIGSNTVNWYQQLPGTAPKLLIYGNNQRPSGVPDRFSGSKSGTSASLAISGLQSEDEADYYCATWDDSLIGWVFGGGTKLTVLGGSGGSEVQLVESGGGLVQPGGSLRLSCAASGFTFSTYAMNWVRQAPGKGLEWVGRIRSKYNNYATYYADSVKDRFTISRDDSKNSLYLQMNSLKTEDTAVYYCARHGNFGNSYVSYFAYWGQGTLVTVSSAAAGSHHHHHH	900 pM	500 pM	1.3 pM	~0.01 pM	1500 pM	300 pM	300 pM	6 pM	3 pM	2 pM	–	1500 pM	1.3 pM and 137 pg/mL	1.2 pM and 126 pg/mL	0.8 pM and 84 pg/mL	1.1 pM and 116 pg/mL	1.4 pM	11.8 pM	1.4 pM	4.5 pM	EC50 (mean), redirected lysis of KASUMI-1 cells (human CD33 [11]): 1.3 pM; EC50 (mean), redirected lysis of KG-1 cells (human CD33 [11]): 1 pM; EC50 (mean), redirected lysis of RPMI-8226 cells (human CD33 [11]): 14 pM; EC50 (mean), redirected lysis of THP-1 cells (human CD33 [11]): 1.9 pM; EC50 (mean), redirected lysis of U-937 cells (human CD33 [11]): 0.9 pM
CD33/CD3 2×2 T-cell engager 16 (bispecific antibody, Non-covalent homodimer; also called AMV564; AMV 564) DIQMTQSPSSLSASVGDRVTITCRSSTGAVTTSNYANWVQQKPGKAPKALIGGTNKRAPGVPSRFSGSLIGDKATLTISSLQPEDFATYYCALWYSNLWVFGQGTKVEIKGGSGGSQVQLVQSGAEVKKPGASVKVSCKASGYTFTSYDINWVRQAPGQGLEWMGWMNPNSGNTGFAQKFQGRVTMTRDTSTSTVYMELSSLRSEDTAVYYCARDRANTDYSLGMDVWGQGTLVTVSSGGSGQSVLTQPPSASGTPGQRVTISCSGSRSNIGSNTVNWYQQLPGTAPKLLIYGNNQRPSGVPDRFSGSKSGTSASLAISGLQSEDEADYYCATWDDSLIGWVFGGGTKLTVLGGSGGSEVQLVESGGGLVQPGGSLRLSCAASGFTFSTYAMNWVRQAPGKGLEWVGRIRSKYNNYATYYADSVKDRFTISRDDSKNSLYLQMNSLKTEDTAVYYCARHGNFGNSYVSYFAYWGQGTLVTVSSAAAGSHHHHHH	200 pM	300 pM	1.5 pM	~0.5 pM	2100 pM	300 pM	300 pM	1 pM	2 pM	3 pM	–	5100 pM	1.5 pM and 158 pg/mL	1.8 pM and 189 pg/mL	1.9 pM and 200 pg/mL	1.7 pM and 179 pg/mL	3.2 pM	24 pM	1.6 pM	4.8 pM	EC50, calcein-release lysis of HL-60, 30 min incubation (human CD33 [12]): 4.8 pM; EC50, calcein-release lysis of HL-60, 60 min incubation (human CD33 [12]): 2.5 pM; EC50, calcein-release lysis of HL-60, 120 min incubation (human CD33 [12]): 1.6 pM; EC50, calcein-release lysis of HL-60, 180 min incubation (human CD33 [12]): 1.6 pM; EC50, calcein-release lysis of HL-60, 240 min incubation (human CD33 [12]): 1.5 pM; EC50, calcein-release lysis of HL-60, 300 min incubation (human CD33 [12]): 1.6 pM; EC50 (mean), redirected lysis of KASUMI-1 cells (human CD33 [11]): 2.4 pM; EC50 (mean), redirected lysis of KG-1 cells (human CD33 [11]): 1.9 pM; EC50 (mean), redirected lysis of RPMI-8226 cells (human CD33 [11]): 2.8 pM; EC50 (mean), redirected lysis of THP-1 cells (human CD33 [11]): 6 pM; EC50 (mean), redirected lysis of U-937 cells (human CD33 [11]): 1.3 pM; IC50, lysis of KG-1 cells (separate experiment) (human CD33 [4]): 5 pM
CD33/CD3 2×2 T-cell engager 22 (bispecific antibody, Non-covalent homodimer) DIQMTQSPSSLSASVGDRVTITCRSSTGAVTTSNYANWVQQKPGKAPKALIGGTNKRAPGVPSRFSGSLIGDKATLTISSLQPEDFATYYCALWYSNLWVFGQGTKVEIKGGSGGSQVQLVQSGAEVKKPGSSVKVSCKASGGTFSSYGISWVRQAPGQGLEWMGGIIPIFGSAHYAQKFQGRVTITADESTSTAYMELSSLRSEDTAVYYCAREYYYDSSEWAFDIWGQGTLVTVSSGGSGQSVLTQPPSASGTPGQRVTISCSGSSSNIGSNTVKWYQQLPGTAPKLLIYSNNQRSSGVPDRFSGSKSGSSASLAISGLQSEDEADYYCAAWDDSLNGYVFGGGTKLTVLGGSGGSEVQLVESGGGLVQPGGSLRLSCAASGFTFSTYAMNWVRQAPGKGLEWVGRIRSKYNNYATYYADSVKDRFTISRDDSKNSLYLQMNSLKTEDTAVYYCARHGNFGNSYVSYFAYWGQGTLVTVSSAAAGSHHHHHH	2000 pM	8600 pM	3.2 pM	–	4100 pM	700 pM	700 pM	10 pM	4 pM	7 pM	0.6	4100 pM	–	–	–	–	–	–	–	–	–
